Residue numbers refer to the chain shown, from its start.
Columns and labels:
[1] = target: T1, monkey GPC3 on HEK293T-monkey GPC3 cells (monkey); assay: FACS on HEK293T-monkey GPC3 cells;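 further: flow cytometry binding of test antibodies to the cells, read as mean fluorescence intensity, with half-maximal concentration taken from fitted curves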
T1 construct: whole, on cells
Procedure: The desired cells were expanded to a logarithmic growth phase in a T-75 cell culture flask, the medium was removed by pipetting, and the cells were washed twice with a PBS buffer, and digested with trypsin. Then a complete medium was added to stop the digestion, and the cells were blown into a single cell suspension. After counting, the cells were centrifuged, and the cell pellet was resuspended with an FACS buffer (PBS+2% fetal bovine serum) to 2×10⁶ cells/mL. The cell resuspension solution was added to a 96-well FACS reaction plate at 50 μl/well, and a chimeric antibody sample to be tested was added at 50 μl/well for incubation at 4° C. for 1 h. […] After the plate was centrifuged and washed 3 times with a PBS buffer, 100 μl of the resulting solution was assayed and analyzed by FACS (FACS Canto™, purchased from BD Biosciences). Data analysis was performed by software (FlowJo) to obtain the mean fluorescence intensity (MFI) of the cells. Then, analysis was performed by software (GraphPad Prism8), data were fitted, and EC₅₀ values were calculated.

[2] = target: T2, human GPC3-His protein (human, UniProt P51654 25-559); assay: SPR, antibody captured on Protein A chip, human GPC3-His analyte;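 further: measured at 25 °C flow cell, human GPC3-His injected at five concentrations up to 200 nM, 240 s association, up to 600 s dissociation, double-referenced, fitted to Langmuir 1:1 model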
T2 construct: also called human GPC3 protein; not shown: His tag

[3] = target: T3, monkey GPC3-His protein (monkey); assay: ELISA, monkey GPC3-His coated;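 further: Plate-coated antigen at 1 µg/mL, antibody binding 2 h at 37 °C, detected with HRP-labeled secondary antibody and TMB, absorbance at 450 nm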
T3 construct: Bought recombinant protein; also called monkey GPC3 protein

[4] = target: T3, monkey GPC3-His protein; assay: SPR, antibody captured on Protein A chip, monkey GPC3-His analyte;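 further: run at 25 °C with 240 s association and up to 600 s dissociation, double-referenced, kinetics fitted to a 1:1 Langmuir binding model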

B1: F1.136.7 (antibody, human IgG1, kappa, V domains shown)
VH: EVQLQQSGPVMVKPGPSVKISCQTSGFTFTDYYIHWVKQSHGKSLEWIGLVFPYDGGTNYNQKFKDKATLTLDTSSSTAYMELNSLTSEDSAVYYCARAGGFSYALNYWGQGTSVTVSS
VL: DIQMTQSPSSLSASLGGKVTITCKASQDINNYIAWYQHKPGKGPRLLIHFTSTLQPGIPSRFSGSGSGRDYSFSISNLEPEDIATYYCLQYDNLLLTFGAGTKLELKR
notes: Human-murine chimeric antibody
[1]
  EC50: 1.94 nM
  Max MFI: 6480 MFI
[2]
  Kd: 0.837 nM
  koff: 7.03e-05 s⁻¹
  kon: 84100 M⁻¹ s⁻¹
[3]
  OD450 at 0.0001 nM: 0.05 OD450
  OD450 at 0.001 nM: 0.05 OD450
  OD450 at 0.01 nM: 0.1 OD450
  OD450 at 0.1 nM: 0.62 OD450
  OD450 at 1 nM: 1.33 OD450
  OD450 at 10 nM: 1.96 OD450
  OD450 at 100 nM: 1.96 OD450
[4]
  Kd: 0.183 nM
  koff: 2.88e-05 s⁻¹
  kon: 158000 M⁻¹ s⁻¹

B2: F1.111.11 (antibody, human IgG1, kappa, V domains shown)
VH: EVQLQQSGPELVKPGASVKISCKASGYTFTDYYMNWVKQSHGKSLEWIGDIYPNNGDTTYNQRFKGKATLTVDKSSSTAYMELRSLASEDSAVYYCACPYNNPFGYWGQGTLVTVSA
VL: DVVMTQTPLSLPVSLGDQASISCRSSQSLVHSNGNTYLHWYLQKPGQSPKLLIYKVSNRFSGVPDRFSGSGSGTDFTLKISRVEAEDLGVYFCSQSTHVPWTFGGGTKLEIKR
notes: as for B1
[1]
  EC50: 0.42 nM
  Max MFI: 4450 MFI
[2]
  Kd: 6.75 nM
  koff: 0.000445 s⁻¹
  kon: 65800 M⁻¹ s⁻¹
[3]
  OD450 at 0.0001 nM: 0.06 OD450
  OD450 at 0.001 nM: 0.11 OD450
  OD450 at 0.01 nM: 0.53 OD450
  OD450 at 0.1 nM: 1.91 OD450
  OD450 at 1 nM: 2.57 OD450
  OD450 at 10 nM: 2.62 OD450
  OD450 at 100 nM: 2.66 OD450
[4]
  Kd: 4.67 nM
  koff: 0.000447 s⁻¹
  kon: 95800 M⁻¹ s⁻¹

B3: F1.115.8 (antibody, human IgG1, kappa, V domains shown)
VH: EVQLQQSGPELVKPGASVKMSCKASGYTFTEYYMHWVKQSHGKSLEWIGYIYPNNGGNGYNQKFKGKATLTVDKSSSTAYMGLRSLTSEDSAVYYCVRGYYSNWYFDVWGTGTTVTVSS
VL: B2 VL with V3L, L29I, N35K, H39E, F92Y, S94F, S96G, T97S, W101F, G105S
notes: as for B1
[1]
  EC50: 0.33 nM
  Max MFI: 6390 MFI
[2]
  Kd: 1.4 nM
  koff: 0.00115 s⁻¹
  kon: 820000 M⁻¹ s⁻¹
[3]
  OD450 at 0.0001 nM: 0.05 OD450
  OD450 at 0.001 nM: 0.07 OD450
  OD450 at 0.01 nM: 0.27 OD450
  OD450 at 0.1 nM: 1.33 OD450
  OD450 at 1 nM: 2.14 OD450
  OD450 at 10 nM: 2.36 OD450
  OD450 at 100 nM: 2.26 OD450
[4]
  Kd: 1.05 nM
  koff: 0.00145 s⁻¹
  kon: 1.38e+06 M⁻¹ s⁻¹

B4: F1.120.16 (antibody, human IgG1, kappa, V domains shown)
VH: EFQLQQSGPELVKPGASVKISCKASGYSFTDYNMNWVKQSNGKSLEWIGLIHPKFSVTSYNRKFKGKATLTVDQSSSTAYMQLNSLTSEDSAVYYCARWAGDYFDYWGQGTTLTVSS
VL: DIVLTQSPATLSVTPGDSVSLSCRASQSISNNLHWYQQKSHESPRLLIKYASQSISGIPSRFSGSGSGTDFTLTINSVETEDFGMYFCQQSNSWPQTFGGGTKLEIKR
notes: as for B1
[1]
  EC50: 0.25 nM
  Max MFI: 5540 MFI
[2]
  Kd: 8.03 nM
  koff: 0.000629 s⁻¹
  kon: 78400 M⁻¹ s⁻¹
[3]
  OD450 at 0.0001 nM: 0.07 OD450
  OD450 at 0.001 nM: 0.07 OD450
  OD450 at 0.01 nM: 0.26 OD450
  OD450 at 0.1 nM: 1.11 OD450
  OD450 at 1 nM: 1.91 OD450
  OD450 at 10 nM: 2.21 OD450
  OD450 at 100 nM: 2.14 OD450
[4]
  Kd: 4.44 nM
  koff: 0.000639 s⁻¹
  kon: 144000 M⁻¹ s⁻¹

B5: F1.118.4 (antibody, human IgG1, kappa, V domains shown)
VH: QVQLQQSGAELAKPGASVKLSCKASGYSFTSYWIHWVKQRPGQGLEWIGYINPSSGYTKYNQKFKDKATLTADKSSSTAYMQLSSLTYEDSAVYYCARFGSSSFYFDYWGQGTTLTVSS
VL: DIVLTQSPASLAVSLGQRATISCRASQSVSSSSYSYMHWYQQKPGQPPKLLIKYASNLDSGVPARFSGSGSGTDFTLNIHPVEEEDTATYYCQHSWEIPAFGGGTKLEIKR
notes: as for B1
[1]
  EC50: 0.32 nM
  Max MFI: 6220 MFI
[2]
  Kd: 0.472 nM
  koff: 0.000118 s⁻¹
  kon: 251000 M⁻¹ s⁻¹
[3]
  OD450 at 0.0001 nM: 0.05 OD450
  OD450 at 0.001 nM: 0.08 OD450
  OD450 at 0.01 nM: 0.28 OD450
  OD450 at 0.1 nM: 1.43 OD450
  OD450 at 1 nM: 2.21 OD450
  OD450 at 10 nM: 2.32 OD450
  OD450 at 100 nM: 2.14 OD450
[4]
  Kd: 0.226 nM
  koff: 0.000102 s⁻¹
  kon: 453000 M⁻¹ s⁻¹

B6: F1.145.22 (antibody, human IgG1, kappa, V domains shown)
VH: QVQLQQSGTDLARPGASVKLSCKASGYTFTSFGISWVKQRTGQGLEWIGEIYPRSGSPYYNEKFTGKATLTADKSSSTAYMELRSLTSEDSAVYFCAKDFGSSYVFDYWGQGTALTVSS
VL: DIQMTQSPASLSASVGETVTITCRASENIYSYLTWYQQKQGKSPQLLVYNAKTLAEGVPSRFSGSGSGTQFSLKINSLQPEDFGTYYCQHHYGTPPTFGTGTKLDLKR
notes: as for B1
[1]
  EC50: 0.69 nM
  Max MFI: 6050 MFI
[2]
  Kd: 0.754 nM
  koff: 0.000164 s⁻¹
  kon: 218000 M⁻¹ s⁻¹
[3]
  OD450 at 0.0001 nM: 0.05 OD450
  OD450 at 0.001 nM: 0.07 OD450
  OD450 at 0.01 nM: 0.25 OD450
  OD450 at 0.1 nM: 1.23 OD450
  OD450 at 1 nM: 2.17 OD450
  OD450 at 10 nM: 2.39 OD450
  OD450 at 100 nM: 2.4 OD450
[4]
  Kd: 0.525 nM
  koff: 0.000164 s⁻¹
  kon: 311000 M⁻¹ s⁻¹

B7: F2.55.11 (antibody, human IgG1, kappa, V domains shown)
VH: EVKLVESGGGLVKPGGSLKLSCAASGLTFSTCTMSWVRQTPAKRLEWVATISSGGGNTYYPDSVKGRFTISRDNARNTLYLQMSSLRSEDTAMYYCVRLYYDGSPYAMDYWGQGTSVTVSS
VL: DIQMTQTTSSLSASLGDRVTISCRASQDISNHLNWYQQKPDGTVKLLIYYTSRLHSGVPSRFSGSGSGTDYSLTISNLEQEDIATYFCQQDSKPPPTFGSGTKLEIKR
notes: as for B1
[1]
  EC50: 0.31 nM
  Max MFI: 3530 MFI
[2]
  Kd: 7.77 nM
  koff: 0.000443 s⁻¹
  kon: 57000 M⁻¹ s⁻¹
[3]
  OD450 at 0.0001 nM: 0.05 OD450
  OD450 at 0.001 nM: 0.1 OD450
  OD450 at 0.01 nM: 0.49 OD450
  OD450 at 0.1 nM: 1.76 OD450
  OD450 at 1 nM: 2.3 OD450
  OD450 at 10 nM: 2.54 OD450
  OD450 at 100 nM: 2.23 OD450
[4]
  Kd: 5.24 nM
  koff: 0.000434 s⁻¹
  kon: 82800 M⁻¹ s⁻¹
